Experiment in all cases: SEC-MALS
Series [1] deals with CdChdC variant H118A (Corynebacterium diphtheriae) (UniProt Q6NGV6).
Series [2] deals with CdChdC variant H118A/Y135A (Corynebacterium diphtheriae) (UniProt Q6NGV6).
For series [3], the target named is CdChdC variant Y135A (Corynebacterium diphtheriae) (UniProt Q6NGV6).
Series [4] deals with the molecule itself.

Usually stoichiometry N stands for a count of units in the complex or per binding partner.

“CdChdC variant H118A (from UniProt Q6NGV6 1-234) (enzyme)” registered a stoichiometry N in series [1] of 5. Take “CdChdC variant H118A/Y135A (from UniProt Q6NGV6 1-234) (enzyme)”: in series [2], the stoichiometry N came out at 5.

For “CdChdC variant Y135A (from UniProt Q6NGV6 1-234) (enzyme)”, the stoichiometry N in series [3] was 5.

B1: coproheme decarboxylase from Corynebacterium diphtheriae (CdChdC), wild-type (enzyme)
chain: MAEKLNFEELNSMQRYSQFAVFRAIPGALGSDRAEIVAQAQSFFDGLETAGKVEVRGIYDLAGCRAEADFMIWWIAEEFEEIQAAFARFRRETVLGQVSEVAWLGNSLHRPAEFNRSHLPSFIMGEIPGDWITVYPFVRSYDWYIMDPQKRRKILAEHGQAARDFPDVRANTVPAFALGDYEWMLAFEAPRLDRIVDLMHKMRYTEARLHVREETPFFTGRRVSEVSELVNVLP
As to B1, the “stoichiometry N” value in series [4] is 5.

For the origin of these results see publication PMC7235987 (ACS Catalysis, 2020).
